# Measured values taken from article PMC10786315 (Proceedings of the National Academy of Sciences of the …, 2024).
# B1: LctR (LctP Regulator, CJ1608) (natural protein, C. jejuni, UniProt Q0P820 1-295, looked up)
# chain: MKVLIIENEIYLAQSISIKLSDAGYSCEIINSFDEYNGEKYYDIILLSTNTNNFLKAVGQFKHSIIILLISYISTDTVSNPLKLGASDYIQKPFMIEELIRKIKHYQDFRKLSILNKAYQSYIKSRLETIKIPEYNYKKLKLPLILKSNKQSSADAFVFNYANECDITLSFIDLTSTNSVEKVMKLPTENNLLFLSNFQALKAAEKEKLLDFIQNKNVILHTNSNTDDLKINCINLNDNEKNINSNEILTIDEYVKYVIINYQNIFPDTDLSKKLGISRKSLWEKRKKYEISKKK
# Biological target: the molecule itself
# Assay: SEC
protein,measurement,value
B1,stoichiometry N,2
